The supplement of paper PMC10126150
± gives the standard deviation of the averaged measurements.

tested on: ATP; assay: switch fluorescence ratio, 500 uM ATP over buffer (Cy3 cluster intensity, sum of 5 cycles each) (fold (ratio)); higher = stronger signal-on switching upon ATP binding; sequences stand for … in TCGTCGGCAGCGTCAGATGTGTATAAGAGACAGTTTTTTTTTTTTTTTTTTTTTTTTT…TC; details: aptamer strand: ATP DNA aptamer (quencher-CACCTGGGGGAGTATTGCGGAGGAAGG + anchor), 100 nM annealed; ATP concentration: 500 uM
Procedure, shortened: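 Per cluster, summed Cy3 intensity from the target cycles was divided by that from the buffer cycles to give the fluorescence ratio, then averaged per switch-domain sequence. Clusters outside 100-1000 RFU were excluded. The Cy3-labelled switching-strand clusters, on a modified Illumina MiSeq flow-cell, were annealed to 100 nM quencher-labelled ATP aptamer and imaged in selection buffer, then after 15 min with 500 uM ATP at 22 °C, for five cycles with NaOH stripping and re-annealing between them.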
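Note: ATP exposure 15 min at 22 °C before imaging.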

In order of falling switch fluorescence ratio:
1. GGCACCTGAC  1.95 ± 0.11
2. GGACAGGGGA  1.87 ± 1.2
3. GGAGCATTTT  1.78 ± 0.88
4. GGCAGGTGTT  1.73 ± 0.85
5. GGCTAGGGGT  1.57 ± 0.022
6. GGCGCAGTTC  1.37 ± 0.077
7. GGAGGGATAG  1.26 ± 0.029
8. GGAGGGAGGA  1.25 ± 0.3
9. GGCCCGGAGC  1.24 ± 0.013
10. GGCAGCAAGT  1.16 ± 0.013
11. GGACCGGGAC  1.12 ± 0.11
12. GGAGCAGTTT  1.12 ± 0.019
13. GGAGATATCT  1.11 ± 0.0069
14. GGAGGCAAGG  1.1 ± 0.054
15. GGCACTATCC  1.09 ± 0.07
16. GGCCGTAATG  1.09 ± 0.019
17. GGCCTGTTTT  1.09 ± 0.21
18. GGACTAAAAT  1.08 ± 0.13
19. GGATTTCATG  1.07 ± 0.12
20. GGCCACAGCA  1.07 ± 0.016
21. GGCGGACGGA  1.07 ± 0.089
22. GGAGTAAAGG  1.06 ± 0.022
23. GGAGTACCTG  1.06 ± 0.046
24. GGCATTACTG  1.06 ± 0.025
25. GGCCGTCGGA  1.06 ± 0.091
26. GGACCAAACG  1.05 ± 0.024
27. GGACGTCGGA  1.05 ± 0.12
28. GGAGTTTGAC  1.05 ± 0.068
29. GGATGCTTGG  1.05 ± 0.021
30. GGATTTAAAA  1.05 ± 0.044
31. GGCAGATTCC  1.05 ± 0.019
32. GGAGAAGAGT  1.04 ± 0.015
33. GGAGAAGCGT  1.04 ± 0.031
34. GGAGGGGTGC  1.04 ± 0.032
35. GGATCCTGCA  1.04 ± 0.052
36. GGATGCTGGT  1.04 ± 0.053
37. GGATGGAAAT  1.04 ± 0.012
38. GGCACGAGGA  1.04 ± 0.017
39. GGCAGTATTT  1.0371 ± 0.00098
40. GGCCAGGGGA  1.04 ± 0.049
41. GGCTCAATGG  1.04 ± 0.031
42. GGCTGAGGGA  1.04 ± 0.037
43. GGCTGGGGTG  1.04 ± 0.071
44. GGAGTTAAGC  1.03 ± 0.061
45. GGAGTTGCGC  1.03 ± 0.043
46. GGATGTAGAA  1.026 ± 0.0011
47. GGATGTTTTT  1.03 ± 0.026
48. GGCAATGAAG  1.03 ± 0.049
49. GGCACGCGAG  1.03 ± 0.05
50. GGCACTTCCA  1.03 ± 0.028
51. GGCAGATGAA  1.03 ± 0.011
52. GGCATCAGGC  1.03 ± 0.042
53. GGCCAAGGGT  1.03 ± 0.0039
54. GGCGACACGT  1.03 ± 0.023
55. GGCGGGGGGG  1.03 ± 0.048
56. GGCGGGTGGG  1.03 ± 0.089
57. GGACGGGATT  1.02 ± 0.068
58. GGACTGGCTA  1.02 ± 0.035
59. GGAGAGGGCA  1.016 ± 0.0077
60. GGAGGAAGG  1.02 ± 0.019
61. GGAGGCGGGA  1.02 ± 0.045
62. GGAGTTGGGA  1.021 ± 0.0066
63. GGATGCTGTT  1.02 ± 0.012
64. GGATGGGTCG  1.02 ± 0.083
65. GGATGGTTTT  1.02 ± 0.018
66. GGATGTTTAG  1.02 ± 0.021
67. GGATTATACA  1.02 ± 0.002
68. GGATTGGGAC  1.024 ± 0.0016
69. GGCAAATGGG  1.02 ± 0.012
70. GGCACGGGGG  1.02 ± 0.008
71. GGCATAATTT  1.016 ± 0.008
72. GGCGCGGCGG  1.02 ± 0.068
73. GGCGCTCAGT  1.02 ± 0.02
74. GGCGTATATC  1.02 ± 0.023
75. GGCTATCGGG  1.02 ± 0.046
76. GGACATAATT  1.01 ± 0.029
77. GGACGGTCGG  1.01 ± 0.052
78. GGACTAGGAA  1.01 ± 0.026
79. GGAGGAATTT  1.01 ± 0.016
80. GGAGTCTGG  1.0086 ± 0.0004
81. GGATGAACGG  1.01 ± 0.079
82. GGATGCAAAG  1.01 ± 0.013
83. GGATGTCGCG  1.0124 ± 0.001
84. GGCATCATGT  1.012 ± 0.0039
85. GGCATGGTTT  1.01 ± 0.014
86. GGCCGAGTTA  1.013 ± 0.0036
87. GGCCGTATGT  1.01 ± 0.011
88. GGCCTAGAGG  1.01 ± 0.021
89. GGCGAAAATA  1.007 ± 0.0079
90. GGCGGGATAT  1.01 ± 0.032
91. GGCGGGGGGT  1.01 ± 0.024
92. GGCGGTAGAG  1.012 ± 0.0091
93. GGCGTCTATC  1.01 ± 0.0096
94. GGCTAGCCTA  1.01 ± 0.013
95. GGCTAGTACT  1.01 ± 0.011
96. GGCTCACTAG  1.01 ± 0.05
97. GGCTGTAGAC  1.006 ± 0.0059
98. GGCTTAATAG  1.01 ± 0.033
99. GGCTTAGTTT  1.01 ± 0.0055
100. GGACGGCGGG  1 ± 0.034
101. GGACTCTGCG  1 ± 0.028
102. GGAGAAAATG  1.0023 ± 0.00074
103. GGAGCCGGGG  1 ± 0.022
104. GGAGGACGGG  1 ± 0.027
105. GGAGTCGGGG  1 ± 0.012
106. GGAGTTTGAG  1 ± 0.0095
107. GGATATAGGG  1 ± 0.034
108. GGATCAGAAG  1.004 ± 0.0056
109. GGATGGAGGT  1 ± 0.023
110. GGATTAGGTA  1 ± 0.021
111. GGATTGTCTT  1 ± 0.0014
112. GGATTTGGTG  1 ± 0.012
113. GGCACACAGT  1 ± 0.015
114. GGCCGCGGCC  1.0014 ± 0.00091
115. GGCCGGAGGT  1 ± 0.011
116. GGCGGAACGT  1 ± 0.023
117. GGCGGGATGC  1 ± 0.031
118. GGCGGTTTGG  1.002 ± 0.0058
119. GGCGTCAGGG  1 ± 0.051
120. GGCTATTTAA  1.002 ± 0.0063
121. GGCTGAGGGT  1 ± 0.016
122. GGAGTACGGG  0.999 ± 0.032
123. GGAGTATGAG  0.999 ± 0.021
124. GGATTGAGTT  0.999 ± 0.035
125. GGATTTGGCT  0.999 ± 0.029
126. GGCAGATTTT  0.9986 ± 0.006
127. GGCATTTTTC  0.999 ± 0.021
128. GGAGAAATGT  0.998 ± 0.011
129. GGATGACTTT  0.9981 ± 0.0071
130. GGATTCGTAA  0.998 ± 0.01
131. GGCCGAGGAG  0.998 ± 0.012
132. GGCCTACCAT  0.9979 ± 0.0091
133. GGCCTATTGG  0.998 ± 0.023
134. GGCCAACGTA  0.997 ± 0.021
135. GGCGTTCATG  0.9968 ± 0.0081
136. GGCTGGGGGG  0.997 ± 0.02
137. GGAGGCAGGG  0.9965 ± 0.0096
138. GGATAGTAGG  0.9956 ± 0.0083
139. GGCCGTGAGT  0.996 ± 0.018
140. GGAGGGCGGT  0.9948 ± 0.0081
141. GGACGTGGGA  0.9944 ± 0.0036
142. GGATCGGGGC  0.994 ± 0.046
143. GGATTGTATG  0.994 ± 0.032
144. GGCGCGTCCA  0.994 ± 0.013
145. GGAGGGGCGT  0.993 ± 0.023
146. GGATGAGGGC  0.993 ± 0.0099
147. GGCGAAAAGG  0.993 ± 0.047
148. GGCGGTAAAG  0.992 ± 0.037
149. GGATGCTGTG  0.991 ± 0.013
150. GGCCTTAAGT  0.9912 ± 0.0025
151. GGCGCGCGGG  0.991 ± 0.00073
152. GGAGTTGGGG  0.99 ± 0.02
153. GGATGAAAG  0.99 ± 0.014
154. GGCGATTGGG  0.99 ± 0.026
155. GGCTGGGCTT  0.99 ± 0.04
156. GGAGACGGGG  0.989 ± 0.011
157. GGAGATGTGG  0.989 ± 0.011
158. GGATAGTGTT  0.988 ± 0.016
159. GGCCTGCTCG  0.988 ± 0.029
160. GGCTACAGCG  0.987 ± 0.0032
161. GGACACGATT  0.986 ± 0.051
162. GGACGCTGTG  0.986 ± 0.043
163. GGACTTGGGC  0.986 ± 0.036
164. GGACTTATGG  0.9851 ± 0.0091
165. GGCATGTTAG  0.9847 ± 0.009
166. GGCCTGAGGG  0.9854 ± 0.0032
167. GGAGTTGGGT  0.984 ± 0.08
168. GGCCCTTTGG  0.984 ± 0.0082
169. GGCTCATTGA  0.984 ± 0.029
170. GGATGTGAGC  0.983 ± 0.021
171. GGAGGCCTCG  0.982 ± 0.018
172. GGATGAGGTT  0.982 ± 0.044
173. GGACTGGGCT  0.9806 ± 0.0081
174. GGCACTGGTA  0.981 ± 0.022
175. GGAGCTTTGT  0.98 ± 0.015
176. GGCGCGCGGT  0.98 ± 0.0095
177. GGATCGGATT  0.979 ± 0.023
178. GGCTCAGTTT  0.979 ± 0.026
179. GGATAAAGGT  0.978 ± 0.018
180. GGAGAGGCAG  0.975 ± 0.026
181. GGATTAGGAG  0.975 ± 0.011
182. GGATGTCACT  0.974 ± 0.016
183. GGATGTTGTG  0.974 ± 0.04
184. GGAGGGCATC  0.972 ± 0.0046
185. GGATGATCTT  0.972 ± 0.022
186. GGCTCTGAGG  0.972 ± 0.02
187. GGAGACAGTT  0.971 ± 0.024
188. GGACTTGGGT  0.9702 ± 0.0082
189. GGCGACGGAG  0.97 ± 0.0076
190. GGCGCTTCGG  0.967 ± 0.05
191. GGATGCTCGG  0.966 ± 0.015
192. GGATGGAGGG  0.965 ± 0.02
193. GGATAGGAGC  0.964 ± 0.033
194. GGAGGCGGGC  0.963 ± 0.12
195. GGATTAAGTG  0.9616 ± 0.006
196. GGCGTATGTG  0.95983 ± 0.00095
197. GGCGGGACCG  0.959 ± 0.03
198. GGAGGATTGG  0.958 ± 0.017
199. GGATTAGACG  0.955 ± 0.062
200. GGAGTAGGCT  0.938 ± 0.057
